Our source for the Kd, koff and kon values is patent publication US20090286727A1 (Ablynx, published 2009).

The target of the test is T1, human IL6 (human, UniProt P05231 30-212, biotinylated in the ELISA (bio-IL6); site not given).
T1 construct: In the ELISA it was biotinylated and captured on a neutravidin-coated plate; In Biacore it was on a CM5 sensor chip; also called bio-IL6; biotinylated human IL6
Briefly: SPR, Biacore 3000, human IL6 on CM5 chip, Nanobody 3.75 nM to 2 uM. How it is done:
Binding of VH4 Nanobodies to different antigens was evaluated by surface plasmon resonance on a Biacore 3000 instrument. […]

The Kd is the equilibrium constant for the complex coming apart. A word on the koff: it is the rate constant with which the complex falls apart. The kon is a measure of how fast the partners come together. Higher therefore signals fast association.

B1: VH4 16.1 (VHH)
VHH: QVQLQESGPGLVKPSQTLSLTCTVSGGSITTYRYYWSWIRQPPGKGLEWMGAIAYSGSTYYSPSLKSRTSISRDTTKNQFTLQLSSVTPEDTAVYYCARGRLGSWYYELNEYDYWGQGTQVTVSS
notes: The two are tied only by the clone number; Llama VH4-class Nanobody, purified by IMAC as a His6-tagged protein; also called anti-IL6 VH4 Nanobody 16.1; VH4 cl16; not shown: His6 tag from vector pAX51
Molecule B1 gave a dissociation constant (Kd) of 0.019 µM, a koff of 0.00036 s⁻¹ and a kon of 19000 M⁻¹ s⁻¹.

B2: VH4 20.1 (VHH)
VHH: QVQLQESGPGLVKPSQTLSLTCTVSGGSITTYNYAWSWIRQPPGKGLEWMGVIAYDGSTYYSPSLKSRTSISRDTSKNQFSLQLSSVTPEDTAVYYCARGTVGSWYDEFPPRYDYWGQGTQVTVSS
notes: The two are tied only by the clone number; also called anti-IL6 VH4 Nanobody 20.1; VH4 Nanobody 20.1; not shown: His6 tag from vector pAX51
As for B2, the Kd was found to be 0.046 µM, the koff turned out to be 0.0018 s⁻¹ and the kon is 40000 M⁻¹ s⁻¹.
